Data as given in paper PMC5897841, “Development of a multipurpose scaffold for the display of peptide loops” (Protein Engineering, Design and Selection, 2017).
Bridge positions count the residues as written; N and C are the ends. Ends that are not written are not given here.

Tests used:
CK2α kinase [1] = biological target: T1, CK2α kinase (Homo sapiens, UniProt P68400); assay: ITC binding of CK2β(186–200) peptide / RAD display to CK2α; conditions: 25°C, 10 mM HEPES pH 7.4, 500 mM NaCl, 0.05% P20, 100 μM titrant into 10 μM CK2α, single titration, ± from fitting, RAD version is cRAD-CK2β(186–200), read-out: Equilibrium dissociation constant (KD), ITC
T1 construct: made in house; host or cells: E. coli BL21(DE3) with pUBS520; pBAT4 plasmid
T1 sequence (P68400 2-329): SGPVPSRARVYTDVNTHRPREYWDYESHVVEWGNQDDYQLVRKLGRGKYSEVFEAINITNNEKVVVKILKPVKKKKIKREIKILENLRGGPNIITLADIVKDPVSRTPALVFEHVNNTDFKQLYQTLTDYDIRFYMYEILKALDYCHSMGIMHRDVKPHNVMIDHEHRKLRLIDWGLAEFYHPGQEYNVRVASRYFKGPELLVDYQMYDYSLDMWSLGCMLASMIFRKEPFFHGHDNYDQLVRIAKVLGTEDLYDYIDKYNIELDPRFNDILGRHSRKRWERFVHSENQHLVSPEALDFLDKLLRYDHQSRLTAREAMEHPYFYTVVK
Experimental: (§1) All ITC experiments were performed on itc200 instrument (GE Healthcare). Prior to ITC titration, proteins and peptides were buffer exchanged into 10 mM HEPES pH 7.4, 500 mM NaCl, 0.05% P20 surfactant. ITC experiments with Aurora Awt kinase were performed in buffer containing 50 mM HEPES pH 7.4, 100 mM Mg(CH3COO)2, 100 mM NaCl, 1 mM ATP, 1 mM DTT, 0.01% v/v P20. […] In the Aurora AD274N and Aurora AWT binding assays, 50 μM solution of the titrant was injected into 5 μM kinase solution in the cell. […] Binding isotherms were fit by non-linear regression using the single-site model provided by ORIGIN software (Origin Lab). The stoichiometry of the interaction (N), equilibrium association constant (KA) and change of enthalpy (ΔH) were floated during the fitting.

CK2α kinase [2] = biological target: T1, CK2α kinase; assay: SPR binding of CK2α to immobilized CK2β(186–200) / RAD-CK2β; conditions: Biacore T100, CM5 chip, ligand immobilized via free cysteine (linear peptide with C-terminal Gly-Cys), 25°C, 10 mM HEPES pH 7.4, 500 mM NaCl, 0.05% P20; data at 200 s post-injection; 1:1 steady-state model; ± from fitting; read-out: Equilibrium dissociation constant (KD), SPR steady-state
Experimental: SPR analyses were conducted using a Biacore T100 instrument (GE Healthcare) using CM5 sensor chips to which cRAD display proteins were immobilized through their unique cysteine residues. All coupling reagents were purchased from GE Healthcare: N-ethyl-N′-dimethylaminopropylcarbodiimide (EDC), 2-(2-pyridinyldithio) ethaneamine hydrochloride (PDEA), N-hydroxysuccinimide (NHS). All immobilizations were conducted at 25°C in running buffer 10 mM HEPES pH 7.4, 500 mM sodium chloride, 0.05% P20. Two CM5 sensor chips were used for the experiments. Peptides and RAD scaffold displaying the peptides were covalently immobilized via free cysteine on the sensor surface in cells 2 and 4, respectively. Cells 1 and 3 were derivatized with cysteine only and served as reference surfaces. Active and reference cells were created automatically using the immobilization surface preparation Wizard software. Immobilization levels for cells 2 and 4 ranged from 240 to 400 RU. […] The dissociation step was 180 s after which sensor surfaces were regenerated by injecting 3 M MgCl2 solution 3 times for 30 sat 60 μl/min. […] Aurora A binding to TPX-2 peptide and RAD-TPX-2 were analyzed also using kinetic data with heterogenous ligand model, with data presented in the Supplementary Material.

CK2α kinase [3] = biological target: T1, CK2α kinase; assay: Fluorescence anisotropy direct binding of labeled CK2β(186–200) / RAD-CK2β
Experimental: About 100 μg peptide or protein in 500 μl sodium phosphate pH 6.75, 150 mM NaCl were labeled using 30-fold excess of the maleimide dye. The reactions was allowed to proceed for 1 h at room temperature and the Alexa Fluor 488-maleimide was removed by dialysis using 3-kDa molecular weight cut-off membrane against 10 mM Tris pH 8, 250 mM NaCl buffer. Protein and peptide samples were dialyzed for 3 h at room temperature and further purified by SEC using Superdex 75 GL 10/300 or Superdex peptide 10/300 GL column (GE Healthcare). Labeled peptides and proteins were concentrated to 100 μM, flash frozen in liquid nitrogen and stored at −80°C. The concentration of labeled peptide or proteins and degree of labeling was determined by measuring the absorbance at 280 and 495 nm.
(§2) A stock solution of Alexa Fluor 488-labeled peptide or display proteins was diluted in assay buffer to concentration of 20 nM. For both studies, 10 mM HEPES pH 7.4, 500 mM NaCl, 1 mM DTT, 0.05% P20 buffer from was used. […] FA was measured using PheraStar spectrofluorimeter plate reader (BMG Laboratories, Durham, NC) equipped with polarization filters (excitation 485 nm, emission 520 nm). Dissociation constants were calculated in pro Fit (Quantum Soft) by fitting experimental data to 1:1 binding model equation.

CK2α kinase [4] = biological target: T1, CK2α kinase; assay: Affinities for CK2α across the experimental techniques (ITC, SPR, FA); assay type: binding; conditions: read-out: KD range between the different experimental techniques
Experimental: as §1, with “The stoichiometry of the interaction (N), equilibrium association constant (KA) and change of enthalpy (ΔH) were floated during the fitting.” left out
SPR analyses were conducted using a Biacore T100 instrument (GE Healthcare) using CM5 sensor chips to which cRAD display proteins were immobilized through their unique cysteine residues. […] Aurora A binding to TPX-2 peptide and RAD-TPX-2 were analyzed also using kinetic data with heterogenous ligand model, with data presented in the Supplementary Material.
as §2, with “nM.” for “nM. For both studies, 10 mM HEPES pH 7.4, 500 mM NaCl, 1 mM DTT, 0.05% P20 buffer from was used.”

CK2α = biological target: CK2α; parameters: method as in Raaf et al., 2013; conditions: ref Raaf et al., 2013; cited from earlier work
CK2β/CK2α complex = test system: CK2β/CK2α complex; parameters: method as in Laudet et al., 2007; conditions: read-out: IC50, inhibition of CK2β/CK2α complex formation; ref Laudet et al., 2007; cited from earlier work
[5] = biological target: T2, wild-type Aurora A (Aurora AWT) kinase domain (Homo sapiens, UniProt O14965); assay: Bio-Layer Interferometry direct binding of Aurora AWT to RAD-TPX2 mutants; conditions: double His-tagged RAD-TPX2 on Anti-Penta-HIS biosensors, 50 mM HEPES pH 7.4, 500 mM NaCl, 100 mM Mg(CH3COO)2, 0.5 mM ATP, 0.5 mM TCEP, 0.05% P20, 1:1 model, read-out: KD, BLI (Fig. 5a)
T2 construct: Aurora A (126-391)WT; made in house; host or cells: E. coli; plasmid pHAT4-LambdaPP
T2 sequence (O14965 126-391): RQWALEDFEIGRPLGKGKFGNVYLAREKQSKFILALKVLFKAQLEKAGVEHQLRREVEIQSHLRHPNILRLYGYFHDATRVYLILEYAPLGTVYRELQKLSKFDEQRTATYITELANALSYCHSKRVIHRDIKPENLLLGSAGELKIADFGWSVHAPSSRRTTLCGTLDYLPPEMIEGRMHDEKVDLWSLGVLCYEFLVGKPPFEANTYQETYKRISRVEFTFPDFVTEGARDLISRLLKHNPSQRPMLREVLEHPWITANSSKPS
Experimental: Octet RED96 (ForteBio) instrument was used for BLI analysis for double His-tagged RAD-TPX2/Aurora AWT interactions. Experiments were performed using Anti-Penta-HIS biosensors (ForteBio), which were regenerated with 10 mM glycine, pH 1.7. IMAC purified RAD proteins displaying wild-type sequence or alanine mutants of the TPX2 were buffer exchanged into 50 mM HEPES pH 7.4, 500 mM NaCl, 100 mM Mg(CH3COO)2, 0.5 mM ATP, 0.5 mM TCEP, 0.05% P20 (assay buffer). For binding assays pre-wet sensors were loaded with double His-tag labeled proteins at 1 μM in assay buffer. Dilution series (from 0 to 500 or 5000 nM) of Aurora AWT kinase construct without His-tag was prepared in the assay buffer and following experimental setup was used for each measurement cycle: regeneration 3 × 5 s, baseline monitoring 120 s, sample loading 200 s, baseline monitoring 150 s, ligand binding (association) 400 s and ligand dissociation 600 s, followed by regeneration and the next cycle. Regenerated Anti-Penta-HIS biosensors were used to perform double referencing. Data was processed using ForteBio Analysis 7.1 software and dissociation constants were calculated in pro Fit (Quantum Soft) by fitting experimental data to 1:1 binding model equation.

Aurora A = conditions: N-terminal segment of TPX2; ref Anderson et al., 2007; read-out: Affinity of TPX2 for Aurora A; cited from earlier work
Description: Aurora A kinase plays an important role in the mitotic spindle assembly and is overexpressed in tumor cells ([Bischoff et al., 1998]). It is known to be dramatically activated by TPX2 protein, which binds to the Aurora A catalytic domain and translocates the kinase to the mitotic spindle during mitosis ([Bischoff et al., 1998]; [Kufer et al., 2002]; [Eyers et al., 2003]).

“CK2β(186–200): synthetic linear peptide, residues 186–200 of human CK2β (RLYGFKIHPMAYQLQ; UniProt P67870 186-200, looked up, fragment)” showed a Kd (CK2α kinase [1]) of 138 ± 13 nM, a Kd (CK2α kinase [2]) of 407 ± 50 nM and a Kd (CK2α kinase [3]; fluorescein-labeled linear peptide or Alexa Fluor 488-labeled cRAD-CK2β(186–200), 10 mM HEPES pH 7.4, 500 mM NaCl, 1 mM DTT, 0.05% P20, CK2α 2 nM–2 μM, 15 min room temperature, 1:1 model, ± from fitting, read-out: Equilibrium dissociation constant (KD), FA) of 348 ± 27 nM. The Kd (CK2α kinase [4]) was 138 to 407 nM.
For “GCRLYGFKIHGCG (disulfide 2-12 (inferred)) [Pc peptide]”, the Kd (CK2α) is given as 559 nM and the IC50 (CK2β/CK2α complex) is given as 3000 nM.
“RAD-TPX2(7–43): RAD scaffold (RadA ATPase domain) displaying residues 7–43 of human TPX2” showed a Kd [5] of 46 nM.
In the case of “TPX2: TPX2 protein, binds Aurora A through its N-terminal segment (LSYSYDAPSDFINFSSLDDEGDTQNIDSWFEEKANLENLKGGGCQM; left off: KSI, end not stated, cleaved)”, the Kd (Aurora A) is listed as 2.3 nM.
With “fluorescein labeled linear CK2β peptide: fluorescein labeled linear CK2β(186–200) peptide (RLYGFKIHPMAYQLQ; also: fluorescein label, site not given here; UniProt P67870 186-200, looked up, fragment) [reference compound]” the “Fold weaker affinity of labeled linear peptide vs RAD display, FA” value (CK2α kinase [3]; fluorescein-labeled linear CK2β peptide relative to RAD-CK2β display) was ~ 3 times.
